Assay: soluble fraction after stress (log2 fold change); higher = more stays soluble; pooled small domains, quantitative proteomics
Conditions: stress: 75 degC
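Also: 20 min heating vs room temperature control held 20 min.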

Sequence | soluble fraction (log2)
HMDGVYLKSLKQTEQHIHWSGYAQSNAWVSTLMRNLDASPWFESPLLIEIKAATINNSRSNEFDLNVRL | 0.0974
HMSVEYRKTLSDGNEYQIVKEKNGYVIKKSLNEGLDYLEPMKNRKYYSSYSQAFKRLNLIAKEVNINEGYD | -0.511
HMSKKMTNEEILNFLKKVLIKHGKISGFIIDEDDNGPSSSVVASRFGGLLNAYKLINYTPER | -0.906
HMTPYEVLVYESLKQKILSGGYAAGEKIPEQSVSEELGVSRSPLRSAIRRLASEGLIEYYPYRGAFVKA | -1.06
HMRKPISQEIVDEVLKLAKNNPDWGYDRIAGVMKYLKYDVSATTVRHILDDNGIVPDPERRLR | 0.23
HMLWTDTKYVTVPDFVGKEPKEIESSYLYNIEYHGEGTKVISQQPAAFSRTIEGGTVRLYLG | -0.0387
HMILNNAKINTELNSLAEFTQRSLDSNTSEIGFYDYKKISYIASFATMKTTNWNVIIRAPINEFMGTVN | 0.126
HMIDAAHLEKAILSLPEGARAVFVLIETEGFAHREVAELLGISEGTSKSQLNYAKKRLREILV | -0.266
HMDEYFNPETVVHYLRELFDTYRENGGNPFEWFHSTFESVNLNPQNYRKDLITTIEKALIEWIEIFEKQ | -0.697
HMRVNINVSENILDWVMKRVNPSVLSSKQGELLYAWKEGRKVPTYNQIEKMSKVTGIPLGYFFLEKPPVE | -1.45
HMDPGPVLISAQVLDDLEAIRRDGSSNMLDWPAVARLAEVMGMDRTAAWVRTHHREYSAGIFRGFASD | -1.93
HMSLTAQVFTDRGKVLLSENKFTEAIDQFTKALAMDKVYIEALNRRIEAYQHLGLTELAAKDEALLGTL | -1.16
HMSSNLSLHKEGNKIVILGLEGKSVIEVYDLMGRLLSSQTNYNPKQEITLLQPVIIRVTDTQQTKSFKV | -1.5
HMTAVVPNFKGKLISELSNFVADKNVRYTIIDSIYDPEEKSGIVIKQDPEEKTQVKHNRIIYLYVTST | -1.51
HMQQIAVDLSEFKPRLMRDMSSMLAGLYTHDLDLSSLDFSKVANFTFMFRGAIITGTLKMPKI | 0.202
HMGESEKTLELVSQKDALVDEAFFFVRFQALLESNKTKGAQDLLDQSNHLSAAKLLQANAYLDIV | 0.44
HMQIAEAESLGQRLLQQSINNIVGRDEAITEERLNRVLSQYSLTGRDELMAQIGLGNRNSSLVAKAMYDI | -0.0772
HMGPRVSAGPGRHRVQPGDTLDDIAARYRVSSRDLMLVNGLRNANHVEAGQTLKLPSNAVIA | 0.15
HMTIQNSILDEIPNIGASRKRAILEAFGSVHRLRKASPEMISAKVEGIGPEMAQAIHDYLVKHPAT | 0.066
HMPVISGQDLRVLIRDTGRERDQGISFLDDGTMVVVEDARRLIGQEVTATVTRVHQTQTGRIVFAHLSN | -1.25
HMRSDHVFTSHLARRDKYISELESLSDSARDDHIQTIKEEDEYLLKYRRTRNLFGIPLNDEMKQFEPFNY | -0.228

Sequence | soluble fraction (log2)
HMDRMINYSPIVAKVPQDDYTTKVYNIPIYSELTVVDKISEPEPLIAPIYRFKYITPEDEEIEFDIPV | -0.00941
HMSSSYTEMQLDKLKKLLEKETLLSSEKSELKSLIHDFDKIPEVVSPLIVGEYLRLKNKYIAVINSLE | -1.25
HMKTKMTPELTTVIEAQIQKEWSPEQISGWLKKTHPVSVSHQRIYQHIQADRQQGGTLHQHLRQAK | 0.00699
HMSYEDLIQAVSGHFGIEIRALLSEDRKKENMIPRQVAMYLLKNKLHYTYERIGNIFSGRNHTAVMYSV | -0.263
HMNEDFSEIIAAVKKFAVDNLSLSTLSDEELEEQIKTITDNMIGNRYVSIKNRVDIAQQVFSSIR | -0.291
HMDVSEITTIKWIIKETKLGINEKILIYVNSKNFTVETLMEGFEIMSKYLVENVSSDKIVYIKN | 0.0119
HMGFAPEAAREEVAQLIGQRGRAVTVLRPSGQVEIAGRRFEATVEVGAVDAGDTIVVRGQTAFALLVEKAD | -0.292
HMKLTKPKLIQLIHIAKSKLNMDELSYRVLLDNLTGKTSTTKMTVGELLKVYESMKDKGFKPQV | -0.993
HMDPNFKYIIRIANSDVSGEQKLAYALTSIRGIGERTSNAIIQKLGLDSTQLAGKLTDKNVEDIESA | 0.092
HMLTGISALKPTEAFPDEIFYEIFEIEDNIERTQYIESLRNTARQLKRVTEFNNLYKSFVLDYAQRQKQ | -1.93
HMNRIARRELMEQLFADNKITTQEQLQQLLRAEGVEVTQATISRDMRILNIVKVSDQNGNTYYKQMK | -0.171
HMGNLASRVAEQLLDKMRGDSLVPGTRLPSEIAMAKHFGVSRTVMREAIARLKADGLLETRRGSGAFVLAT | -0.973
HMHRGEIVDGVIASVNPRSILIDIGGKSDALVHPRELERMSDEDLRSLKPGQDVSVYVIETDSDGTMLVSL | 0.0809
HMSKMTLGENLRLLRREKGLSQEQVAQTLFVARQTISKWENGQAEPGVESLKALAKLYGVSLDRLVGA | -1.01
HMQQYLDAYDKALAFGIAMNKLPSYENLTLDDKEDVDKLKEIYDGMSNYEKTFVAKDFTDKLDRYVKRIE | 0.347
HMDDPWHNLANAIVAVAADDYRSALRNEDEGLLKSLELFFHSEWYRILTDVDADRLLGMLRRERS | -1.71
HMGGDFVEHLKDLASEAPVIRLVNTIIGRVIDLRASDIHLEPFDDGLHVRYRVDGVIHPGELVPPRLS | 0.0444
HMGNWEQQLRSWADGELATGKQDILTTAVPAFERALIETALSHTNGRKRDAAELLGWGRNTLTRKLKELGM | -0.401
HMGTGSSAERITMLNSILERQIQAMEIQGNPDAPIVNIQKIYTTLQRIVETAGLKDVDQFFMNPLQGQKEM | -0.134
HMNILVAISDTGEIWINKRRVDARAVQANIERLHAENPQGTVVIQADKQATTETLIKVMDASRAAGVFDVS | -0.691
HMFDKVSVNNLAEAIGRLDGIYQDVLRLYYVHELPSKEIGKILNINHLTVNTRLKRAREKLFKMLKEE | -3.11

Sequence | soluble fraction (log2)
HMNDTLQEYFEALERLKSNNPINVPKNTKINNDSVALEAGRKRGSIKKSREIFAELIEAINNAS | -0.303
HMNPNYIKKLREKNQLTQEYLAAQIGVSRPTYAQIEQGQRGLTVTEAKKMADIFSLALDDFLAEKN | -0.135
HMYHADLIGLEARSTAGDKLGEVNAVYNFGAGDLIEIKMTDGNLEMLPFTRQYVPTVSIKDGFIIVQM | -1.32
HMIMGTITKRTNPSGAIVYRAQIRIKKAGYPDFSESRTFSKKAMAVEWLKLREAELEMHPELLFR | -2.35
HMALTLDEARTQGRVGETFYGYLVALKTDAETEKLVNDINAERKASYQQLAKQNNVSVDDIAKLAGQKLV | 0.00592
HMSLPQSKDAVITILRTLPQLDTRAPEVYKLLGPHALDIILEDPEQVAKKINHVGVATAKLWQQALLGFK | -0.751
HMIDEQDLKKYILISTSVEELTDYLGATDRMLYDYLYSLKHVGQYWQLNERFLLDLYKLPNLVIVDKEDLE | -0.172
HMKAGAVFNEGDVLYPKIGGLKLMAAAGEGGKVVATLAKTDEMIYMGEEQSGFVKVESGSGSGWVKKILVA | 0.438
HMTETPDDLLAALKKNKKAQATFDAFSPSNKKEYILWITEAKTEATRTKRLETAIEWMSEGKARNW | -0.579
HMSYTPGQWVEASMPNATFFRIVPSGNATADKMLAVATPMKVISTSGTYVKVELDSGDVGFVPEIMV | -0.199
HMKTTKDSVFEYIQKELMTNEEYKQGINTNVIAQHFGLQRSNISTILNELVKEDRLEKTNTRPVLYFLPQ | -0.208
HMAPRQDIAYYTVKPGDTVLAIAEKFGLQPETLMWSNSIIEQNPDRLSIGDELRILPVDGVLHVVK | 0.129
HMQPPKIISTVEPYREVVREYLKQGVEMTAIWQRLRENYQYTGSYSSVRRFVAQLEPRQPEA | -1.9
HMSFPLKRGSKGNRVTQLQNALVKKFGASILPKYGVDGMFGKEVEAALVRAKLPTSINESTYNSFV | 0.125
HMDFFVLVGAYKTPDEAETIRAKIAFSGLDSSVSHGNDGRYRVRIGPFHSEGDARKAQSTLRANDIPGQII | -1.01
HMVGPAHIGLAVAKDQLPHWERHLTANGVEIEGRMRWDHGGESIYFRDPDAHLLELVTPGIWAN | 0.0383
HMSMTVHGALRLLQLPTIADRPYTLKEIREAYREQAQNHHPDAGGSADAMRRLNEAYQFLKERYRQA | -0.449
HMENNIILNYVKDNLNITEKDAKDLIELLGSDYYHIKNETNKIAAFLDGQPYSFEKIKNLISIDKEY | 0.0409
HMTGKVKWYDADKGFGFVTEDGGRDVYVRKSALPQGVETLKAGQRLEFGIAEGRRGPQALSVR | -0.0771

Source: the domain aggregation screens of Martell et al. (2025)
